According to US20240285785A1, “TARGETING SORTILIN” (priority 2022, published 2024):

Columns and labels:
SORT1 = molecular target: T1, SORT1 (Homo sapiens, UniProt Q99523); experiment: Competition binding in FP; conditions: FP competition binding assays, PDC vs parent peptide
T1 construct: Human SORT1 (78-755)-His (Acrobiosystems); His (C); purchased Acrobiosystems SON—H52H5
T1 sequence (Q99523 78-755): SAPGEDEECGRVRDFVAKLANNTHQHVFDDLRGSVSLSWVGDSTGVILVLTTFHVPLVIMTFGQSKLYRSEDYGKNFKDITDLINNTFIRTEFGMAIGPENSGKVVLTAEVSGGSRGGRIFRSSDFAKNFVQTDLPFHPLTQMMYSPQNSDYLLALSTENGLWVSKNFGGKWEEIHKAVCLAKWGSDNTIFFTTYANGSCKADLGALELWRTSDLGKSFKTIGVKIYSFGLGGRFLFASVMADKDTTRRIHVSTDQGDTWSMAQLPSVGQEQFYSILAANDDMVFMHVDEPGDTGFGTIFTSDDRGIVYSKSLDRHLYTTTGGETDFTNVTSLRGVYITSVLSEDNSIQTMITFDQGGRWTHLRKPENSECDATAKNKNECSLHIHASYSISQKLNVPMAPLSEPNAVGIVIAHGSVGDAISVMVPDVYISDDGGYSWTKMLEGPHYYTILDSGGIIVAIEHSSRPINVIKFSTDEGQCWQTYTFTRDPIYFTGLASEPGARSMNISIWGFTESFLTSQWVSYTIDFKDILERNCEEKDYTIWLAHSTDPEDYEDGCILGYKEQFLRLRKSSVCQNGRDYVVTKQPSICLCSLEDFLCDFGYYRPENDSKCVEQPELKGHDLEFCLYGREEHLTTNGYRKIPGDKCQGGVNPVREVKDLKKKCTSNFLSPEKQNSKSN
Experimental: Competition binding studies were conducted in a similar manner to the direct binding protocol. Unlabeled peptides were prepared with a 12-point, two-fold dilution series in a V-bottom 96-well plate for a total volume of 25 μL with a starting concentration of 50 μM. A 10× working stock of the FAM labeled peptide was prepared as described for the Direct binding experiment.
An aliquot of 20 μL of the 500 nM working solution was then added to 2.5 μL of the FAM-peptide, after which 2.5 μL of the unlabeled peptide dilution series was added and mixed by pipetting in a V-bottom 96-well plate. Samples were allowed to incubate for 15 minutes, then 10 μL of the mixture was transferred to an opaque black 384-well non-binding FP plate (Corning® Low Volume 384-well Black Flat Bottom Polystyrene NBS Microplate, #3820) in technical duplicates. The 384-well plate was then centrifuged 1 min, 4000 rpm and fluorescence and polarization of dye measured on a Biotek Synergy Neo2 plate reader using the same settings as for the Direct Binding experiment. Data were then fitted to a One site—Fit logIC50 curve in GraphPad to calculate the IC50.

[1] = Murine plasma stability assay; assay type: in vitro ADME; conditions: mouse, 37° C., read-out: Murine plasma stability assay, T1/2
Experimental: Frozen plasma was thawed at 37° C. and centrifuged at 4000 rpm to remove any clots and transferred to 96-well reaction plates by WuXi AppTec. Test compounds were added to the reaction plate at a final concentration of 2 μM and either stopped immediately or incubated at 37° C. for 5 minutes, 10 minutes, 30 minutes, 60 minutes, or 120 minutes. At the end of incubation, stop solution consisting of 200 ng/mL tolbutamide and 200 ng/mL labetalol in ACN was added to precipitate protein and mixed thoroughly. Samples were then transferred to a bioanalysis plate and shaken for 10 minutes prior to HPLC-MS/MS analysis of percent remaining compound.

[2] = CMC formulation buffer screen (shake flask solubility); assay type: physicochemical; conditions: 0.5 mg/mL
Experimental: Exemplary conjugate agents (e.g., sortilin binding agents), referred to in the present Example as “peptide drug conjugates” or “PDCs” were assessed in a formulation screen to determine an appropriate vehicle for in vivo studies and to assess precipitation risk. PDC solutions were made up to 0.5 mg/mL in the following buffers: 25 mM Histidine 10% sucrose pH 7, 50 mM acetate/acetic acid, 10% sucrose pH 5, 1×PBS pH 7.4, Saline, 50 mM HEPES 10% sucrose pH 7. Solubility was assessed using a shake flask method and the test compound concentration of the filtrate was confirmed using HPLC-UV.
The following buffers were screened: 25 mM Histidine 10% sucrose pH 7, 50 mM acetate/acetic acid, 10% sucrose pH 5, 1×PBS pH 7.4, Saline, 50 mM HEPES 10% sucrose pH 7. The PDCs were soluble in all buffers tested (Table 1), and we proceed to use 25 mM Histidine, 10% sucrose pH 7 as our buffer of choice for our in vivo studies.

MDA-MB-231 tumor cells = experiment: MDA-MB-231 murine xenograft efficacy model; assay type: in vivo, BALB/c Nude mice
Experimental: Murine xenograft experiments were conducted at WuXi AppTec and/or Charles River Laboratories and the care and use of animals was conducted in accordance with the regulations of the Association for Assessment and Accreditation of Laboratory Animal Care (AAALAC). MDA-MB-231 tumor cells (ATCC, Manassas, VA, cat #HTB-26) were grown and maintained in L15 medium supplemented with 10% heat inactivated fetal bovine serum, 1% Antibiotic-Antimycotic, and L-glutamine (2 mM) at 37° C. in an atmosphere in 5% CO2, 95% air. BALB/c Nude, female, 6-8 weeks, weighing approximately 18-22 g were purchased from Vital River Laboratory Animal Technology Co., LTD. Mice were inoculated subcutaneously at the right flank with MDA-MB-231 tumor cells (e.g., triple negative breast cancer cells) (10×10^6) in 0.2 mL of PBS with Matrigel (1:1) for tumor development. Animals were randomized and treatment was started when the average tumor volume reached approximately 150-200 mm^3 for the efficacy study. Dosing volume was adjusted based on body weight and was administered at 10 ml/Kg. […] Free MMAE payload was also tested, and similarly dissolved in 25 mM Histidine 10% sucrose pH 7 and one or more of the following doses, 0.6, 0.06 mg/kg, were administered to the mice i.v. at a QW×4 schedule. Tumor sizes were measured twice weekly in two dimensions using a caliper, and the volume in mm^3 calculated using the formula: V=0.5 a×b^2, where a and b are the long and short diameters of the tumor, respectively. TGI was calculated for each group using the formula: TGI (%)=[1−(Ti−T0)/(Vi−V0)]×100; where Ti is the average tumor volume of a treatment group on a given day, T0 is the average tumor volume of the treatment group on the first day of treatment, Vi is the average tumor volume of the vehicle control group on the same day with Ti, and V0 is the average tumor volume of the vehicle group on the first day of treatment.

Question: For CC[C@H](C)[C@@H]([C@@H](CC(=O)N1CCC[C@H]1[C@H](OC)[C@@H](C)C(=O)N[C@H](C)[C@@H](O)c1ccccc1)OC)N(C)C(=O)[C@@H](NC(=O)[C@H](C(C)C)N(C)C(=O)OCc1ccc(NC(=O)[C@H](CCCNC(N)=O)NC(=O)[C@@H](NC(=O)CCCC(=O)NCCC(=O)N(C)CC(=O)N(C)CC(=O)N(C)CC(=O)N(C)CC(=O)N[C@@H](C)C(=O)N2CCC[C@H]2C(=O)N[C@@H](CCCNC(=N)N)C(=O)N[C@@H](Cc2c[nH]c3ccccc23)C(=O)N[C@@H](CC(=O)O)C(=O)N[C@@H](C)C(=O)N2CCC[C@H]2C(=O)N[C@@H](CC(C)C)C(=O)N[C@@H](CCCNC(=N)N)C(=O)N[C@@H](CC(=O)O)C(=O)N2CCC[C@H]2C(=O)N[C@@H](C)C(=O)N[C@@H](CC(C)C)C(=O)N[C@@H](CCCNC(=N)N)C(=O)N[C@@H](CCC(N)=O)C(=O)N[C@@H](CC(C)C)C(=O)N[C@@H](CC(C)C)C(=O)O)C(C)C)cc1)C(C)C [PRGN_WT_PDC], which “increase in affinity relative to parent homing peptide” value (SORT1) is on record?
Answer: The value was roughly 2.5 ×.

Question: What about the half-life at 2 μM [1] of the same compound?
Answer: Its half-life at 2 μM is 17.1 min.

Question: And the formulation screen result ([2]; 25 mM Histidine 10% sucrose pH 7)?
Answer: Its formulation screen result is “clear solution”.

Question: What about the formulation screen result ([2]; 50 mM HEPES 10% sucrose pH 7) of the same compound?
Answer: The formulation screen result was “clear solution”.

Question: And the formulation screen result ([2]; 50 mM acetate/acetic acid, 10% sucrose pH 5)?
Answer: Its formulation screen result is “clear solution”.

Question: What about the formulation screen result ([2]; 1x PBS pH 7.4) of the same compound?
Answer: The formulation screen result was “clear solution”.

Question: What about the formulation screen result ([2]; Saline) of the same compound?
Answer: The formulation screen result was “clear solution”.

Question: And the “tumor growth inhibited relative to vehicle” value (MDA-MB-231 tumor cells; 3 mg/kg i.v. QW×4, day 22 (Example 8))?
Answer: Its value is 96%.

Question: And the “tumor growth inhibition” value (MDA-MB-231 tumor cells; 3, 1, 0.3 mg/kg i.v. QW x 4)?
Answer: The value was “dose-dependent tumor growth inhibition”.

Question: And the body weight variation (MDA-MB-231 tumor cells; Example 6, PDC 3, 1, 0.3 mg/kg, free MMAE at equivalency to 3 mg/kg PDC)?
Answer: The body weight variation was “mirrored that observed with vehicle treatment”.

Question: And the body weight loss (MDA-MB-231 tumor cells; Example 8, PDC 3 mg/kg, free MMAE 0.6 mg/kg, i.v. QW×4)?
Answer: The body weight loss was “body weight loss tracked each other”.
